Test results taken from patent publication US20170355757A1.

Target: human C5aR1 (human) (UniProt P21730)
Experiment: cell-based or functional assay

human C5aR1 (human), sequence (P21730 whole entry): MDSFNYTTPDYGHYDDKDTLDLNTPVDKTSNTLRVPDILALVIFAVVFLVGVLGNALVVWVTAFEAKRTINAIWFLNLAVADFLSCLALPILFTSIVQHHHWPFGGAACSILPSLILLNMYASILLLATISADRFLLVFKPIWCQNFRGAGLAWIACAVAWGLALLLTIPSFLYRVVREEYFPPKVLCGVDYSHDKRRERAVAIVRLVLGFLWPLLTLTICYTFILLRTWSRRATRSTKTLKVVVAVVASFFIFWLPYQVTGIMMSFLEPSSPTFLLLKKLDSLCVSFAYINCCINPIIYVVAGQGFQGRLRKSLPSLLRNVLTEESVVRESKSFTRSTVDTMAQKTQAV

## hC5a (from UniProt P01031 678-751) (ligand)
  EC50[M] hC5a, luciferase reporter in HEK293/Gα16/hC5aR1/NFAT-luc cells: 3.9e-10 M
